Source: patent publication US20120321554A1 (MODIQUEST B V, published 2012)
Where no end group is shown, it is not given here.

How the values were obtained:
Bovine serum albumin [1] = molecular target: T1, Bovine serum albumin (bovine, UniProt P02769 25-607); assay: phage ELISA, anti-M13 detection
T1 construct: Control coat in ELISA; also called BSA

[2] = molecular target: mouse plexin D1 (on vessels in mouse tissue) (mouse) (UniProt Q3UH93); assay: cell-based or functional assay
Bovine serum albumin [3] = molecular target: T1, Bovine serum albumin; assay: ELISA with soluble sdab, detection via VSV-G-tag
[4] = molecular target: T2, PLXND1-peptide-KLH conjugate (human, also: conjugated to KLH, attachment site not given here); assay: SPR, Biacore 2000; peptide-KLH conjugate on CM5 chip, sdab in solution, BSA surface subtracted, 1:1 Langmuir model
T2 construct: Coupled to a CM5 chip (27 ug/ml in Na-Acetate pH 4.0) for the Biacore measurements; also called KLH-conjugated peptide
T2 peptide: ALEIQRRFPSPTPTNC-NH2

[5] = molecular target: T3, human plexin D1 (in sections of human tumors) (human, UniProt Q9Y4D7 47-1925); assay: immunohistochemistry on human tumor tissue
T3 construct: whole, on cells; Endogenous protein on tumor cells and vessels in tissue sections (immunohistochemistry); also called PLXND1
T3 sequence (Q9Y4D7 47-1925): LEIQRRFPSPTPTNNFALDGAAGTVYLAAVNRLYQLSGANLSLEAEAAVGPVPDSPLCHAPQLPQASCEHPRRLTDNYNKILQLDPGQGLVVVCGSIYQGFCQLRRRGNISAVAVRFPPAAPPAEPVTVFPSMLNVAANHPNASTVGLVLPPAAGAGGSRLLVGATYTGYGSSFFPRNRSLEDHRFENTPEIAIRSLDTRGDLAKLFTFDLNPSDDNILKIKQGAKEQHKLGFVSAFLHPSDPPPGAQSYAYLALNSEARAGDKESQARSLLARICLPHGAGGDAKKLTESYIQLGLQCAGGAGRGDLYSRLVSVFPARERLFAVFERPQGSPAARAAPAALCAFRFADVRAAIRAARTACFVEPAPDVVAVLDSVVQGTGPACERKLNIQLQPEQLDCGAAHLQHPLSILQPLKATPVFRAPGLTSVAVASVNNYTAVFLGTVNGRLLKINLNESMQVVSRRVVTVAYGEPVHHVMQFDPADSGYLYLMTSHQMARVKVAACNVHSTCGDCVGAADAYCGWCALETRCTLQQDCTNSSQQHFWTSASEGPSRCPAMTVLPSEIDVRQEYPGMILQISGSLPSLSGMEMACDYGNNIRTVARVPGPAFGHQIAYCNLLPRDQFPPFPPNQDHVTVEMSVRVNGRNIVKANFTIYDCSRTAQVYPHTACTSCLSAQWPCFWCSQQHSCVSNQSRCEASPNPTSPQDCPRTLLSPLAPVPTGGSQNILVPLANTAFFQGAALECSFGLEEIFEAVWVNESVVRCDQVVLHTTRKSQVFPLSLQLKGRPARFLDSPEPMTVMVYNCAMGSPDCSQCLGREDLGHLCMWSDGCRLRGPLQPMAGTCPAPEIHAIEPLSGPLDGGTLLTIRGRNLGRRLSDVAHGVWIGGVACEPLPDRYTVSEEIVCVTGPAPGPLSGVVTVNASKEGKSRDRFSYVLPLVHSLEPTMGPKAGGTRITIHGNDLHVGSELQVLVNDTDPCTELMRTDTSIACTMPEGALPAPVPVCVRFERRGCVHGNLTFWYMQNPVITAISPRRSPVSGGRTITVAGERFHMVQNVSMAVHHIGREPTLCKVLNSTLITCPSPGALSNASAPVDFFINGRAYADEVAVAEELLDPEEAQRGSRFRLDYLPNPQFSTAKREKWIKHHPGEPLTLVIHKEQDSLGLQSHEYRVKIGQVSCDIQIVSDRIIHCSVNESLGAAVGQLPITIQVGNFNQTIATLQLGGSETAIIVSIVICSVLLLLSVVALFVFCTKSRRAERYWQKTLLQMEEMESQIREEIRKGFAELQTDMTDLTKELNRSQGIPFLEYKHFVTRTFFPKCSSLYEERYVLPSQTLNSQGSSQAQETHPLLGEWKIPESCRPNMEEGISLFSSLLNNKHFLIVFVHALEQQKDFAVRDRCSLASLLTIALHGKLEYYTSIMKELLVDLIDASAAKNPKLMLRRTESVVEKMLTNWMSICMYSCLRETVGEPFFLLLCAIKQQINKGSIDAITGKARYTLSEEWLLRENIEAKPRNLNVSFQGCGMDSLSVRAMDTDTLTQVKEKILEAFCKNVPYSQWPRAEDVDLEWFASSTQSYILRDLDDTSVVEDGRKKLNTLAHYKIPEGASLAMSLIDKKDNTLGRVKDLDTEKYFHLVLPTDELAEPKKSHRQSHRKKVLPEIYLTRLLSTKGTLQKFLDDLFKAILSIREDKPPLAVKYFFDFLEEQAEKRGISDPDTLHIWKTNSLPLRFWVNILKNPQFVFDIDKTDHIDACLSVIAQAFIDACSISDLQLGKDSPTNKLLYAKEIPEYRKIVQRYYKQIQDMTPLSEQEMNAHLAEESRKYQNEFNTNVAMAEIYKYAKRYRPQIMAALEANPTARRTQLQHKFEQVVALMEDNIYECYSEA

T1 sequence (P02769 25-607 limits assumed): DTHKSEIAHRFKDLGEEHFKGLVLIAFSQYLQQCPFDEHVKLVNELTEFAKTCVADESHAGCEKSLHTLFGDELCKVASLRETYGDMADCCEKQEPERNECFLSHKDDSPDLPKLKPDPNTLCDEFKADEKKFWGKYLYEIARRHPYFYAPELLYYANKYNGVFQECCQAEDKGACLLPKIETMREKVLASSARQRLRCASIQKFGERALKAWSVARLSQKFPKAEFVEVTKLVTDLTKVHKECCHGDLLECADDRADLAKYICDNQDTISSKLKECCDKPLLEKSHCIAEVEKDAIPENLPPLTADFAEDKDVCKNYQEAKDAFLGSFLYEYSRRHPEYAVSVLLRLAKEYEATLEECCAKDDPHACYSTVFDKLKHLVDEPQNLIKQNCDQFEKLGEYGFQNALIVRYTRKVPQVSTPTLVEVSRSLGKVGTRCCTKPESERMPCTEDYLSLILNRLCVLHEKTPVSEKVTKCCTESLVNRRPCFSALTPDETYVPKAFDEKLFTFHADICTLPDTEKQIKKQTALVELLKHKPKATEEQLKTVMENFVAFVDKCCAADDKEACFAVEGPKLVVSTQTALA
Chain of mouse plexin D1 (on vessels in mouse tissue) (mouse) (Q3UH93 49-1925): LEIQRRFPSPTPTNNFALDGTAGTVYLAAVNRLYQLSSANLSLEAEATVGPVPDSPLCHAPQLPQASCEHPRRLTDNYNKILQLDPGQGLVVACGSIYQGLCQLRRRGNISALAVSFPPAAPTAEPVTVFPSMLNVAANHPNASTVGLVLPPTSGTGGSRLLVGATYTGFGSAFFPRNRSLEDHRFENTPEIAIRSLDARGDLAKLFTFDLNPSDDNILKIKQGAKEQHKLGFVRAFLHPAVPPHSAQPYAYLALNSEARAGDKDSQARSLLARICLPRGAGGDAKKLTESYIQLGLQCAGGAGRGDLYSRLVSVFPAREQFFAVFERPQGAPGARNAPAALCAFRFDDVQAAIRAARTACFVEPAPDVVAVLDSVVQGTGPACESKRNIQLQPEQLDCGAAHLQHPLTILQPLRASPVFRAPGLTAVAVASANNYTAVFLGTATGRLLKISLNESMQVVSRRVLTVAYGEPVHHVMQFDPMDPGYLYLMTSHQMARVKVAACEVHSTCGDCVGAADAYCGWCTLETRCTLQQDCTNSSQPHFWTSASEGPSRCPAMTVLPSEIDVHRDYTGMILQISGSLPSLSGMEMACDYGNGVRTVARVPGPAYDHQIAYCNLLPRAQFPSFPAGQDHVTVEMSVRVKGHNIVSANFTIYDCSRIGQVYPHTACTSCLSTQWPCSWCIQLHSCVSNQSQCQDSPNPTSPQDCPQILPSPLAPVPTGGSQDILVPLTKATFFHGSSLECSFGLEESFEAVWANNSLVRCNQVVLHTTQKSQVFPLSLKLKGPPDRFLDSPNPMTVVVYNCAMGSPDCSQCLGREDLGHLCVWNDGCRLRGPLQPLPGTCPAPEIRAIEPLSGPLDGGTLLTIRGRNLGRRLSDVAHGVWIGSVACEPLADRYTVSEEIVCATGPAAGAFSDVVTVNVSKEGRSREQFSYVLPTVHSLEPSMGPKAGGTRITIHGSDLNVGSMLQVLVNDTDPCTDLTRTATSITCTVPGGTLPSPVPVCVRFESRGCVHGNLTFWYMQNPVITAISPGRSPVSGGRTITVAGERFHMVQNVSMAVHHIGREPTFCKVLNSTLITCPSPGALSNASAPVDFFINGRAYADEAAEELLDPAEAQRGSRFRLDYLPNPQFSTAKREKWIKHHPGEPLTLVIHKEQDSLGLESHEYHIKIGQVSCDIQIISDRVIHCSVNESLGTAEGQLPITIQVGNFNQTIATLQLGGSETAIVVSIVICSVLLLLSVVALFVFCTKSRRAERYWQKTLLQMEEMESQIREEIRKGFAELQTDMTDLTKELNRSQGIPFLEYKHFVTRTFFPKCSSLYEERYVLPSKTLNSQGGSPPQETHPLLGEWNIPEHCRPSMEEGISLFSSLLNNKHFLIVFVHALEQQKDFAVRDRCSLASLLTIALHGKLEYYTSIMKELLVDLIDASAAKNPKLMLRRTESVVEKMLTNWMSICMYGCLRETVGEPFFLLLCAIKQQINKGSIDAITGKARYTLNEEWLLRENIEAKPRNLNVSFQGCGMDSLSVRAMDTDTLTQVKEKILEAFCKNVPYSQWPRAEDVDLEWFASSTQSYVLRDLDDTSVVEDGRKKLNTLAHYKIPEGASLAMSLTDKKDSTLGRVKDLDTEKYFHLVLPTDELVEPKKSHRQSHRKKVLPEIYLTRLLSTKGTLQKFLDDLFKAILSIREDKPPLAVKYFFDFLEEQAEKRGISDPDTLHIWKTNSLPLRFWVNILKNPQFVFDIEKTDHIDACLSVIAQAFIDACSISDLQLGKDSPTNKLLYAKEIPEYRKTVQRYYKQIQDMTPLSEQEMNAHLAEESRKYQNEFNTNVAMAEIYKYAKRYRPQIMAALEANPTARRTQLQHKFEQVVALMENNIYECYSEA

Row | Binder | binding result (Bovine serum albumin [1]) | quantification of phage homing: colony-forming phages eluted from laser-dissected tumor tissue against unaffected brain [2] | binding result (Bovine serum albumin [3]) | Kd [4] | binding result [5]
1 | M13 phage displaying single domain antibody F8 (VHH, Whole M13 phage particle carrying F8; detected with anti-M13 antibody; also called phage F8; M13 phage associated antibody F8; not shown: M13 phage coat protein to which the sdab is fused (phagemid pHENIXHis8VSV); not described) VHH: QVQLQESGGGLVQAGDSLRLSCAASGRTFSTLIMAWFRQAPGKEREFVAAISRGGGSTSYADSVKGRFTISRDNSKNAVYLQMNSLKPDDTAVYYCNARYGSRIYWGQGTQVTVSS | no binding (tested: 10^10 phages) | 20 fold |  |  | 
2 | Llama single domain antibody F8 (soluble sdab, C-terminal 8*His-tag and VSV-G-tag) (VHH, also called sdab F8; V-H single domain antibody F8) VHH: QVQLQESGGGLVQAGDSLRLSCAASGRTFSTLIMAWFRQAPGKEREFVAAISRGGGSTSYADSVKGRFTISRDNSKNAVYLQMNSLKPDDTAVYYCNARYGSRIYWGQGTQVTVSS |  |  | no binding | 35 nM | 
3 | Llama single domain antibody A12 (soluble sdab, C-terminal 8*His-tag and VSV-G-tag) (VHH, also called sdab A12; V-H single domain antibody A12) VHH: QVQLQESGGGLVQPGGSLRLSCAASGSSISINNWGWYRQAPGKQRERVAAISGGGKTVYADSVKGRFTISRDNAKNTVYLQMNSLKPEDTAVYYCRAVRKSTGWLRGLDVWGQGTQVTVSA |  |  | no binding | 21 nM | binds
4 | M13 phage displaying single domain antibody A12 (VHH, Whole M13 phage particle carrying A12; detected with anti-M13 antibody; also called phage A12; M13 phage associated antibody A12; not shown: M13 phage coat protein to which the sdab is fused (phagemid pHENIXHis8VSV); not described) VHH: QVQLQESGGGLVQPGGSLRLSCAASGSSISINNWGWYRQAPGKQRERVAAISGGGKTVYADSVKGRFTISRDNAKNTVYLQMNSLKPEDTAVYYCRAVRKSTGWLRGLDVWGQGTQVTVSA | no binding (tested: 10^10 phages) |  |  |  | 
